Source: patent US20210041458A1, “Lectin Assay For Assessing Glycoforms As An Early Marker In Disease” (Baruch S. Blumberg Institute, priority 2009, published 2021)
Entries after “also recorded” stand apart in the source; their conditions may differ. Blank lines part the entries; values can stand above or below the molecule they belong to.

How the values were obtained:
[1] = Selectivity for fucose linkage; format: binding
IgG0 ligand [2] = experiment: Competition (indirect) ELISA: unbiotinylated AAL proteins against biotinylated AAL binding to IgG0 in serum; parameters: species or system human; conditions: for decrease in signal output versus control: compared with commercial (Vector) AAL
Experimental: 96 well plates are coated with sodium periodate (NaIO4) treated mouse IgG (1.0 ug/well). 3 ul of serum from a patient with cirrhosis (Gish 342) or serum from normal donors (Sigma) were diluted to 100 ul and added to antibody coated wells. Plates are washed and then incubated at room temperature for 30 minutes/shaking with equivalent amounts of either unbiotinylated commercial (Vector) AAL, unbiotinylated recombinant 10×-His tagged (rAAL 10×), or unbiotinylated recombinant 10×-His tagged mutant AAL (rAAL N129Q, N224Q)). Equivalent amounts of biotinylated AAL was then added to each well and incubated for 1 hour at room temperature/shaking. Plates are washed and incubated with streptavidin-800-IRDye as previously described. Plates are washed and fluorescence quantified using a LiCor Odyssey machine. Control samples measured biotinylated AAL binding to IgG0 in the absence of unbiotinylated AAL.
Competition experiments provide an indirect ELISA for measuring the ability of unbiotinylated commercial (Vector) and unbiotinylated rAAL proteins to interfere with binding of biotinylated AAL to the IgG0 ligand. It is a qualitative indication of the relative affinities of the untagged AAL proteins for the IgG0 ligand.

[3] = Surface plasmon resonance, tryptophan fluorescence and enzyme linked lectin assays; format: binding; conditions: rAAL from bacteria, isolated by nickel affinity chromatography
Experimental: Quantitative equilibrium binding of mutant and wild-type AAL for the selection ligand and other L-fucopyranosyl oligosaccharides are determined by BIAcore analysis and enzyme linked lectin assays (Oiausson et al).

[4] = multivalent; compared to other lectins; cited from earlier work
IgG0 ligand [5] = experiment: IgG0 ligand binding to AAL proteins coated on nickel NTA plates, fluorescence readout; parameters: species or system human; conditions: FIG. 2
Experimental: Equal amounts of recombinant AAL (wild type or mutants) containing 10× Histidine tags were coated to nickel NT A plates and incubated with increasing amounts of IgG0 ligand (X axis). Un tagged, commercially purchased AAL (AAL-V) was also coated to nickel NT A plates or on high affinity binding ELISA plates (AAL-Vc) and incubated with increasing amounts of IgG0 ligand. Plates were washed and incubated with fluorescently tagged anti-human lgG, washed and read in a fluorescence detector. Increasing relative fluorescence indicates higher binding affinity.

[6] = serum from a cirrhotic patient (Gish 342), FIG. 3

B1: N224Q: mutant Aleuria aurantia lectin with N224 changed to glutamine (protein, UniProt P18891 2-313, looked up, variant N224Q)
Fucose-specific lectin: PTEFLYTSKIAAISWAATGGRQQRVYFQDLNGKIREAQRGGDNPWTGGSSQNVIGEAKLFSPLAAVTWKSAQGIQIRVYCVNKDNILSEFVYDGSKWITGQLGSVGVKVGSNSKLAALQWGGSESAPPNIRVYYQKSNGSGSSIHEYVWSGKWTAGASFGSTVPGTGIGATAIGPGRLRIYYQATDNKIREHCWDSNSWYVGGFSASASAGVSIAAISWGSTPQIRVYWQKGREELYEAAYGGSWNTPGQIKDASRPTPSLPDTFIAANSSGNIDISVFFQASGVSLQQWQWISGKGWSIGAVVPTGTPAGW
modifications: 10xHis tag
notes: mutant Aleuria aurantia lectin with N224 changed to glutamine
selectivity for the 1-6 linkage against outerarm linkages [1]: more selective for the 1-6 linkage than outerarm

B2: rAAL (N129Q, N224Q): recombinant 10×-His tagged mutant AAL with both N129Q and N224Q (protein, UniProt P18891 2-313, looked up, variant N129Q N224Q)
Fucose-specific lectin: PTEFLYTSKIAAISWAATGGRQQRVYFQDLNGKIREAQRGGDNPWTGGSSQNVIGEAKLFSPLAAVTWKSAQGIQIRVYCVNKDNILSEFVYDGSKWITGQLGSVGVKVGSNSKLAALQWGGSESAPPQIRVYYQKSNGSGSSIHEYVWSGKWTAGASFGSTVPGTGIGATAIGPGRLRIYYQATDNKIREHCWDSNSWYVGGFSASASAGVSIAAISWGSTPQIRVYWQKGREELYEAAYGGSWNTPGQIKDASRPTPSLPDTFIAANSSGNIDISVFFQASGVSLQQWQWISGKGWSIGAVVPTGTPAGW
modifications: 10xHis tag
notes: recombinant 10×-His tagged mutant AAL with both N129Q and N224Q
decrease in signal output versus control (IgG0 ligand [2]; [6]): greater decreases in signal output versus control

binding affinities for fucosylated oligosaccharides compared with commercially prepared AAL [3]: substantially higher binding affinities | affinity for the IgG0 ligand compared with commercially available AAL (IgG0 ligand [2]; Example 1): higher affinity | affinity in cirrhotic patients compared with controls (IgG0 ligand [2]; serum samples, FIG. 3): significantly higher affinity
B3: rAAL: recombinant AAL produced in and isolated from bacteria using nickel affinity chromatography (protein, UniProt P18891 2-313, looked up)
Fucose-specific lectin: PTEFLYTSKIAAISWAATGGRQQRVYFQDLNGKIREAQRGGDNPWTGGSSQNVIGEAKLFSPLAAVTWKSAQGIQIRVYCVNKDNILSEFVYDGSKWITGQLGSVGVKVGSNSKLAALQWGGSESAPPNIRVYYQKSNGSGSSIHEYVWSGKWTAGASFGSTVPGTGIGATAIGPGRLRIYYQATDNKIREHCWDSNSWYVGGFSASASAGVSIAAISWGSTPNIRVYWQKGREELYEAAYGGSWNTPGQIKDASRPTPSLPDTFIAANSSGNIDISVFFQASGVSLQQWQWISGKGWSIGAVVPTGTPAGW
modifications: His tag

B4: AAL: 312 amino acid lectin with five binding sites for L-fucose or L-fucose-linked oligosaccharides (protein, UniProt P18891 2-313, looked up)
Fucose-specific lectin: PTEFLYTSKIAAISWAATGGRQQRVYFQDLNGKIREAQRGGDNPWTGGSSQNVIGEAKLFSPLAAVTWKSAQGIQIRVYCVNKDNILSEFVYDGSKWITGQLGSVGVKVGSNSKLAALQWGGSESAPPNIRVYYQKSNGSGSSIHEYVWSGKWTAGASFGSTVPGTGIGATAIGPGRLRIYYQATDNKIREHCWDSNSWYVGGFSASASAGVSIAAISWGSTPNIRVYWQKGREELYEAAYGGSWNTPGQIKDASRPTPSLPDTFIAANSSGNIDISVFFQASGVSLQQWQWISGKGWSIGAVVPTGTPAGW
binding affinity for carbohydrate ligands [4]: micromolar; also recorded: micrormolar

Limit of Detection (IgG0 ligand [5]; IgG0 ligand): 10 ng/mL | improvement of the Limit of Detection (IgG0 ligand [5]; IgG0 ligand): 10-100 fold | signal to noise ratio (IgG0 ligand [5]; increasing IgG0 ligand): highest signal to noise ratio
B5: AAL M1(N129Q): recombinant 10× His-tagged mutant Aleuria aurantia lectin with N129 changed to glutamine (protein, UniProt P18891 2-313, looked up, variant N129Q)
Fucose-specific lectin: PTEFLYTSKIAAISWAATGGRQQRVYFQDLNGKIREAQRGGDNPWTGGSSQNVIGEAKLFSPLAAVTWKSAQGIQIRVYCVNKDNILSEFVYDGSKWITGQLGSVGVKVGSNSKLAALQWGGSESAPPQIRVYYQKSNGSGSSIHEYVWSGKWTAGASFGSTVPGTGIGATAIGPGRLRIYYQATDNKIREHCWDSNSWYVGGFSASASAGVSIAAISWGSTPNIRVYWQKGREELYEAAYGGSWNTPGQIKDASRPTPSLPDTFIAANSSGNIDISVFFQASGVSLQQWQWISGKGWSIGAVVPTGTPAGW
modifications: 10xHis tag
notes: recombinant 10× His-tagged mutant Aleuria aurantia lectin with N129 changed to glutamine

B6: rAAL 10×: unbiotinylated recombinant 10×-His tagged wild-type AAL (protein, UniProt P18891 2-313, looked up)
Fucose-specific lectin: PTEFLYTSKIAAISWAATGGRQQRVYFQDLNGKIREAQRGGDNPWTGGSSQNVIGEAKLFSPLAAVTWKSAQGIQIRVYCVNKDNILSEFVYDGSKWITGQLGSVGVKVGSNSKLAALQWGGSESAPPNIRVYYQKSNGSGSSIHEYVWSGKWTAGASFGSTVPGTGIGATAIGPGRLRIYYQATDNKIREHCWDSNSWYVGGFSASASAGVSIAAISWGSTPNIRVYWQKGREELYEAAYGGSWNTPGQIKDASRPTPSLPDTFIAANSSGNIDISVFFQASGVSLQQWQWISGKGWSIGAVVPTGTPAGW
modifications: 10xHis tag
notes: unbiotinylated recombinant 10×-His tagged wild-type AAL
decrease in signal output versus control (IgG0 ligand [2]; [6]): greater decreases in signal output versus control

signal output (IgG0 ligand [2]; serum from a cirrhotic patient (Gish 342), control ~35, FIG. 3): ~20
B7: commercial (Vector) AAL: untagged, commercially purchased AAL (Vector), eluted with L-fucose in manufacture (protein, UniProt P18891 2-313, looked up)
Fucose-specific lectin: PTEFLYTSKIAAISWAATGGRQQRVYFQDLNGKIREAQRGGDNPWTGGSSQNVIGEAKLFSPLAAVTWKSAQGIQIRVYCVNKDNILSEFVYDGSKWITGQLGSVGVKVGSNSKLAALQWGGSESAPPNIRVYYQKSNGSGSSIHEYVWSGKWTAGASFGSTVPGTGIGATAIGPGRLRIYYQATDNKIREHCWDSNSWYVGGFSASASAGVSIAAISWGSTPNIRVYWQKGREELYEAAYGGSWNTPGQIKDASRPTPSLPDTFIAANSSGNIDISVFFQASGVSLQQWQWISGKGWSIGAVVPTGTPAGW
